In paper PMC4140777:

What was measured:
[1] = molecular target: T1, β-bungarotoxin (β-BuTx) (Bungarus multicinctus) (UniProt P00618+P00987); assay: fluorescence anisotropy; conditions: 20 mM HEPES pH 7.4, 150 mM NaCl, 5 mM KCl, 2 mM MgCl2, 2 mM CaCl2, room temperature
[2] = molecular target: T1, β-bungarotoxin (β-BuTx) (Bungarus multicinctus); assay: filter binding; conditions: 20 mM HEPES pH 7.4, 150 mM NaCl, 5 mM KCl, 2 mM MgCl2, 2 mM CaCl2, room temperature

T1 sequence (P00618 26-145, chain 1 of 2): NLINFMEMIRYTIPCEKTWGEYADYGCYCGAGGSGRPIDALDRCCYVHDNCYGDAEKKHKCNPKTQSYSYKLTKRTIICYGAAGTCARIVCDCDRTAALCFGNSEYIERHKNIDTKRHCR
T1 sequence (P00987 25-85, chain 2 of 2): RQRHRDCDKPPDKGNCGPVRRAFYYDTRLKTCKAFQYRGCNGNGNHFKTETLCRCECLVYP

| Sequence | Kd [1] [µM] | binding signal [2] [% bound] |
| --- | --- | --- |
| AGCAGCACAGAGGTCAGATGGCAATGCACCTTTGTCTCTTATAGTTTATTTTTTGCCTTCCTATGCGTGCTACCGTGAA [βB-32] | 0.995 |  |
| AGCAGCACAGAGGTCAGATGTTTGGTGTGGATCCTGAACATTTATATTCTTTCGTTTTTTCCTATGCGTGCTACCGTGAA [βB-19] | 0.53 |  |
| AGCAGCACAGAGGTCAGATGGTTTTCCCCTTGTCGCTTTTGGTTCGTTCTGCCTCTATCTCCTATGCGTGCTACCGTGAA [βB-1] | 0.0659 | 45 |
| AGCAGCACAGAGGTCAGATGATTAGTCATGTTTGTTTGTCTGGCTTTTTGGGTTTGTGCAGTATTATGAACCCTATGCGTGCTACCGTGAA [βB-20] | 0.0838 |  |
